Experimental data reported in paper PMC9234716, “Comparative analysis defines a broader FMRFamide-gated sodium channel family and determinants of neuropeptide sensitivity” (The Journal of Biological Chemistry, 2022).
Where no end group is shown, it is not given here.

How the values were obtained:
[1] = test system: Octopus FaNaC; assay: Peptide-gated currents at oocytes expressing Octopus FaNaC; format: cell-based, Octopus bimaculoides; details: peptides at 100 μM
Source text: (§1) Figure 1 Phylogenetic and experimental characterization of the FaNaC family.A, FaNaC branch from DEG/ENaC phylogeny (full phylogeny in Fig. S1). ∗Genes tested here. ∞Genes tested elsewhere. Genes in bold encode peptide-gated channels. aLRT support for key branches is shown. Blue background, broader FaNaC family; green background, annelid-specific branch of FaNaCs with diverse ligand sensitivity; pink background, Wamide-activated channels (WaNaCs). B, example peptide-gated currents at Xenopus oocytes expressing indicated genes. All peptide applications 100 μM, except for some at Capitella FaNaC: FMRFa, FLRPa, FLRFa, and FMKFa (3 μM); LFRYa (30 μM). The scale bars represent x, 10 s; y, 5 μA. C, mean (± SEM) normalized current response to different peptides (concentrations as in (B)) at oocytes expressing indicated channels. Lighter symbols are individual data points, n = 4 to 7. FaNaC, FMRFa-gated sodium channel; FMRFa, Phe-Met-Arg-Phe-amide.

[2] = test system: Crassostrea FaNaC; assay: Peptide-gated currents at oocytes expressing Crassostrea FaNaC; format: cell-based, Crassostrea gigas; details: peptides at 100 μM
Source text: as §1

[3] = test system: Capitella WaNaC^212912; assay: Two-electrode voltage clamp of Xenopus oocytes expressing Capitella WaNaC 212912; format: cell-based, Capitella teleta
Protocol: (§2) Defolliculated stage V/VI oocytes from X. laevis were commercially acquired (Ecocyte Bioscience) and stored at 18 °C in 50% (in water) Leibovitz’s L-15 medium (Gibco) supplemented with additional 0.25 mg/ml gentamicin, 1 mM L-glutamine, and 15 mM Hepes, pH 7.6. Oocytes were injected with 2 ng cRNA (WT or mutant Aplysia FaNaC) and 2 to 60 ng cRNA (WT C. gigas XM_011442205.2, O. bimaculoides XM_014930938.1, L. gigantea XM_009055314.1_160261, P. fucata pfu_aug2.0_4392.1_09318.t1, C. teleta Capca1_207658, Capca1_52833, Capca1_185559, and Capca1_212912, M. lignano Mlig049925.g2, Mlig051885.g1, and Mlig041003.g1, P. australis g6004.t1 and g5063.t1 and R. norvegicus NP_077068.1 (rat ASIC1a) and respective mutants). Two-electrode voltage clamp experiments were performed 1 to 3 days after injection. The oocyte was placed in an RC-3Z bath (Warner Instruments) and bath solution (NaCl: 96 mM, KCl: 2 mM, CaCl2: 1.8 mM, MgCl2: 1 mM, Hepes: 5 mM; pH: 7.5) was perfused continuously and rapidly switched to bath solution containing peptide ligands via the VCS-8-pinch valve control perfusion system (Warner Instruments). […] Peptides were applied at varying concentrations between 30 nM and 100 μM for concentration-response experiments. […] Current recordings were analyzed in Clampfit 11.1 (Molecular Devices). […]

[4] = test system: Malacoceros WaNaC^ON156824; assay: Two-electrode voltage clamp of Xenopus oocytes expressing Malacoceros WaNaC ON156824; format: cell-based, Malacoceros fuliginosus; details: WT channel, n = 9, mean ± SEM, read-out: KWGGNSRMWa EC50
[5] = molecular target: T1, rat ASIC1a (Rattus norvegicus, UniProt P55926, K246A); assay: FRRFa enhancement of pH-gated currents at oocytes expressing WT or mutant rat ASIC1a; format: cell-based; details: K246A mutant; 50 μM FRRFa; n = 6
T1 construct: R. norvegicus NP_077068.1 (rat ASIC1a) and respective mutants; expressed in transfected cells; host or cells: Xenopus laevis oocytes (cRNA injection)
T1 sequence (P55926 1-526 K246A): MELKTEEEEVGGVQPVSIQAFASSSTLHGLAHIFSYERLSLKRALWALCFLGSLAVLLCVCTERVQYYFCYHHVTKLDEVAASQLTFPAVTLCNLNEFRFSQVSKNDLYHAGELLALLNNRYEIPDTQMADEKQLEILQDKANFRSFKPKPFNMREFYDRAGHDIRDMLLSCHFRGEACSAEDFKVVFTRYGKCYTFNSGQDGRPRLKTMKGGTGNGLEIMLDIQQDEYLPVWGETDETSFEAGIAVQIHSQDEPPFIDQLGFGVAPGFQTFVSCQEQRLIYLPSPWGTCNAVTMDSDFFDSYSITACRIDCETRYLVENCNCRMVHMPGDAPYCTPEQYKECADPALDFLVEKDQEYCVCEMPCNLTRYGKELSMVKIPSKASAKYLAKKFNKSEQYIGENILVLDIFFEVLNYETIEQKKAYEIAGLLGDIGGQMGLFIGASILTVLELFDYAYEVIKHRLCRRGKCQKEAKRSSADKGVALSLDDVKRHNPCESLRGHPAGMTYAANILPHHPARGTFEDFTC
Protocol: (§3) Figure 6 Determinants of FRRFa modulation of rat ASIC1a.A, pH 5.3 (filled black bars)-gated currents after preincubation in desensitizing pH (unfilled bars) alone or in 50 μM FRRFa (blue bars) at oocytes expressing WT or mutant rat ASIC1a (rASIC1a). The scale bars represent x, 10 s; y, 200 nA. Desensitizing pH described in Figure S4. B, mean (± SEM, n = 4–7) enhancement (currentb/currenta from (A)) of desensitized current amplitude by 50 μM FRRFa at indicated rat ASIC1a mutants. ASIC, acid-sensing ion channel.
(§4) Figure S4. Measurement of steady state desensitization and peptide modulation of rat ASIC1a mutants. (A) Left, example currents at an oocyte expressing a rat ASIC1a mutant in response to decreasing pH. Right, mean (± SEM, n = 3-4) normalized currents in response to decreasing pH. (B) Left, example currents at an oocyte expressing a rat ASIC1a mutant in response to pH 5.3 after pre-incubation in decreasing pH. Right, mean (± SEM, n = 3-4) normalized currents in response to decreasing pre-incubation pH. This established that pH 6.9 was strongly desensitizing for WT and most mutants, and pH 6.7 was strongly desensitizing for mutants K246A and V377A. (C) Example experiment showing: current response to activating pH (5.3) after pre-incubation in resting pH 7.8; current response ("a") to activating pH after 20 s pre-incubation in desensitizing pH (6.7 for this mutant); and current response ("b") to activating pH after 20 s pre-incubation in desensitizing pH plus 50 μM FRRFa. Dividing current amplitude "b" by that of "a" gives fold-enhancement by FRRFa in Fig. 6B. All scale bars: x, 10 s; y, 10 μA.

[6] = molecular target: T2, rat ASIC1a (Rattus norvegicus, UniProt P55926); assay: as above; format: cell-based; details: WT; 50 μM FRRFa; pH 5.3 after preincubation in desensitizing pH; n = 7
T2 construct: R. norvegicus NP_077068.1 (rat ASIC1a) and respective mutants; expressed in transfected cells; host or cells: Xenopus laevis oocytes (cRNA injection)
T2 sequence (P55926 1-526): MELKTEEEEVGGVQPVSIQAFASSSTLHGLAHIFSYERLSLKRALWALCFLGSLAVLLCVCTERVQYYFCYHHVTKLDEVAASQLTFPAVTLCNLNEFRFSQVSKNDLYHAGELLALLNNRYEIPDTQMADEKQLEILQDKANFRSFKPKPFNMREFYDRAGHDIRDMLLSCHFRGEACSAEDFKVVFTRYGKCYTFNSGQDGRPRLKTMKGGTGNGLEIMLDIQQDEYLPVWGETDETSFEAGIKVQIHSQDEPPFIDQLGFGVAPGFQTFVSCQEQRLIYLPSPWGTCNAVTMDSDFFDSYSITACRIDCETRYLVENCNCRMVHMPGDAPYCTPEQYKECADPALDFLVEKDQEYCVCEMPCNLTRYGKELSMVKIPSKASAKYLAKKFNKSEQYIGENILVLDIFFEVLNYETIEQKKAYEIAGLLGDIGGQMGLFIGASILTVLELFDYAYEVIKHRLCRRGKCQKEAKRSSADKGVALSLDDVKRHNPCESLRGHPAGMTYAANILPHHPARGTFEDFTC
Protocol: as §3, §4

[7] = molecular target: T3, rat ASIC1a (Rattus norvegicus, UniProt P55926, S274A); assay: as above; format: cell-based; details: S274A mutant; 50 μM FRRFa; n = 6
T3 construct: R. norvegicus NP_077068.1 (rat ASIC1a) and respective mutants; expressed in transfected cells; host or cells: Xenopus laevis oocytes (cRNA injection)
T3 sequence (P55926 1-526 S274A): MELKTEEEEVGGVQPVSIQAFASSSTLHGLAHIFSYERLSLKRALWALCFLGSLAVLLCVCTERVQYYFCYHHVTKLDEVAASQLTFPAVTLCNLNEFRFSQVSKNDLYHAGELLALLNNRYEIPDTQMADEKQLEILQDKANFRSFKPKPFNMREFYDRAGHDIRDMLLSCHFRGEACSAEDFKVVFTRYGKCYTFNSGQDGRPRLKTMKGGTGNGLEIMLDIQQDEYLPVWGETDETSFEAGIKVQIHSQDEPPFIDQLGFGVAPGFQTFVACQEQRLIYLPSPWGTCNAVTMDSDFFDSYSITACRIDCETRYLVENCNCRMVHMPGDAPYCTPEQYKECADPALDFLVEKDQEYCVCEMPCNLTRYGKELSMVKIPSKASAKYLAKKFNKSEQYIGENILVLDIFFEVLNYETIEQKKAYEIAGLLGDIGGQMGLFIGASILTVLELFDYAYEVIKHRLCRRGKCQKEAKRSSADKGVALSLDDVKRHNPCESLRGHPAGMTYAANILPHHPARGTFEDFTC
Protocol: as §3, §4

[8] = test system: Capitella FaNaC^52833; assay: Two-electrode voltage clamp of Xenopus oocytes expressing Capitella FaNaC 52833; format: cell-based, Capitella teleta; details: WT; LFRYa 30 μM
Protocol: as §2

[9] = molecular target: Malacoceros fuliginosus WaNaC^ON156824 (Malacoceros fuliginosus)
[10] = molecular target: Aplysia kurodai FaNaC (FMRFa-gated sodium channel) (Aplysia kurodai)
[11] = molecular target: Malacoceros fuliginosus FaNaC^ON156826 (Malacoceros fuliginosus)
[12] = molecular target: Capitella teleta FaNaC^52833 (Capitella teleta)
[13] = molecular target: Malacoceros fuliginosus FaNaC^ON156825 (Malacoceros fuliginosus)
[14] = molecular target: Aplysia kurodai FaNaC S184A (Aplysia kurodai)
[15] = molecular target: Capitella teleta WaNaC^212912 (Wamide-gated sodium channel) (Capitella teleta)
[16] = molecular target: T4, rat ASIC1a (acid-sensing ion channel 1a) (rat) (UniProt P55926)
T4 sequence: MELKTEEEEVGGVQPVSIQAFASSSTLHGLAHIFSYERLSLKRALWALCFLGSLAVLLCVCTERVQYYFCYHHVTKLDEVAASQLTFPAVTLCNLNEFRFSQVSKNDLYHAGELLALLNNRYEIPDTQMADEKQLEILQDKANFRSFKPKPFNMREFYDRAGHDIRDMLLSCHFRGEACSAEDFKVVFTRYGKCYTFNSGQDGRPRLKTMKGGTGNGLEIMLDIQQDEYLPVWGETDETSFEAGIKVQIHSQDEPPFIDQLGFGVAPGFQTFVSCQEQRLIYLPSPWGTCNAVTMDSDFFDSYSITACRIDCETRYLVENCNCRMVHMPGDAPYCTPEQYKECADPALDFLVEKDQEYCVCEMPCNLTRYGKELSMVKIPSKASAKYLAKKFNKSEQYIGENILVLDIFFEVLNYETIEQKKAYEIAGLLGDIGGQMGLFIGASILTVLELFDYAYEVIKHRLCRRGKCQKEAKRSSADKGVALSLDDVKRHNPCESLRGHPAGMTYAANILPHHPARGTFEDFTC

[17] = molecular target: T5, rat ASIC1a S274A (rat) (UniProt P55926)
T5 sequence: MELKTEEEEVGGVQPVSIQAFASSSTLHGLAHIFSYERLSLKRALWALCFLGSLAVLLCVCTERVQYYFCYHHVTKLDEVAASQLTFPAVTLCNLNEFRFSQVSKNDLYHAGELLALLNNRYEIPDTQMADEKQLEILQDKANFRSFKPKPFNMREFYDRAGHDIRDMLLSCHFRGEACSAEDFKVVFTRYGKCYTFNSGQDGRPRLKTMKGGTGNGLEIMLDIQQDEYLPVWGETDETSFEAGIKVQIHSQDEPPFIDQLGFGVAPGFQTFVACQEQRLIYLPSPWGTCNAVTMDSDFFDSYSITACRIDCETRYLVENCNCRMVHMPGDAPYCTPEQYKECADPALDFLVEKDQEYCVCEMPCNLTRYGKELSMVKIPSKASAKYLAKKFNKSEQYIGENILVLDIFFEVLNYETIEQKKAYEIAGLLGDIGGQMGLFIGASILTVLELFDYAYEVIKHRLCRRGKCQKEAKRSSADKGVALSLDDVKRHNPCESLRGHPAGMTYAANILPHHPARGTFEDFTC

FLRFa: peptide encoded by the Octopus FMRFa propeptide (FLRF-NH2)
current amplitude relative to FMRFa [1]: larger currents than FMRFa
current amplitude relative to FMRFa [2]: slightly larger currents than FMRFa

FMKFa: peptide encoded by the Octopus FMRFa propeptide (FMKF-NH2)
current amplitude relative to FMRFa [1]: larger currents than FMRFa

AWVGDKSLSW-NH2 [AWVGDKSLSWa]
AWVGDKSLSWa-gated currents ([3]; R255Q, R291N and R472Q mutations): abolished
EC50 ([3]; WT channel, Xenopus oocytes, n = 8, mean ± SEM, read-out: AWVGDKSLSWa EC50): 2000 ± 200 nM

KWGGNSRMW-NH2 [KWGGNSRMWa]
EC50 [4]: 340 ± 100 nM

FRRFa: synthetic FMRFa analog that enhances ASICs (FRRF-NH2)
enhancement of pH-gated currents [5]: not ostensibly enhanced at all
enhancement of pH-gated currents [6]: 10 ± 3 fold
enhancement of pH-gated currents [7]: 2 ± 0.3 fold

LFRYa: product of the RYamide propeptide from Capitella (LFRY-NH2)
current response to peptide [8]: small currents

B1: …a (peptide)
peptide: KWGGNSRMW-NH2
EC50 of peptide-gated current, two-electrode voltage clamp on Xenopus oocytes [9]: 340 nM

B2: FMRFamide (Phe-Met-Arg-Phe-amide) (peptide)
peptide: FMRF-NH2
EC50 of FMRFa-gated current, two-electrode voltage clamp on Xenopus oocytes [10]: 3400 nM
I (3 μM)/I (30 μM) ratio of FMRFa potency (3 μM FMRFa-gated current amplitude/30 μM FMRFa-gated current amplitude) [10]: 0.64
EC50 of peptide-gated current, two-electrode voltage clamp on Xenopus oocytes [11]: 11000 nM
EC50 of peptide-gated current, two-electrode voltage clamp on Xenopus oocytes [12]: 350 nM
EC50 of peptide-gated current, two-electrode voltage clamp on Xenopus oocytes [13]: 230 nM
EC50 of FMRFa-gated current, full concentration-response, two-electrode voltage clamp on Xenopus oocytes [14]: 30000 nM

B3: …a (peptide)
peptide: AWVGDKSLSW-NH2
EC50 of peptide-gated current, two-electrode voltage clamp on Xenopus oocytes [15]: 2000 nM

B4: FRRFa (peptide)
peptide: FRRF-NH2
fold enhancement of desensitized pH 5.3-gated current by 50 μM FRRFa, two-electrode voltage clamp on Xenopus oocytes [16]: 10 fold
fold enhancement of desensitized pH 5.3-gated current by 50 μM FRRFa, two-electrode voltage clamp on Xenopus oocytes [17]: 2 fold
